# Assay: yeast display, Sf9 membrane polyspecificity reagent, FACS + sequencing; frameworks hold sequencing errors
# In short: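 Sorting gates, low and high (top ~1%), were placed on anti-HA fluorescence to track expression and on streptavidin fluorescence to track reagent binding. A clone's polyreactivity label is taken from the gate it came out of. The reagent was 10% biotinylated, detergent-solubilized Sf9 membrane, applied for 1 hour at 4 °C to galactose-induced yeast display cells.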
row,Sequence,polyreactivity (PSR sort gate)
1,QVQLVESGGGLVQAGGSLRLSCAASGSTFQNYAMGWYRQAPGKERELVAAINWSGGSTYYADSVKVRFTISRDNAKNTVYLQMNSLKPEDTAVYYCATDDPLAYGSFGPYQPYDYWGQGTQVTVSS,low polyreactivity
2,QVQLVESGGGLVQAGGSLRLSCAATGLIFAYNTMGWYRQAPGKERELVAGITSSGSTYYADSVKGRFTISRDNAKNTVYVQMNSLKPEDTAVYYCAAEWDDGRSWYWYYLVGFEYWGQGTQVTVSS,high polyreactivity
3,QVQLVESGGGLVQAGGSLPLSCAASGRIFNYYTMGWYRPAPGKERELVAAISTRGGRTYYADSVKGRFTISRDNAKNSVYFQMNSLKPEDTAVYYCARDIRIRIVYDGIYNYWGQGTQVTVSS,high polyreactivity
4,QVQLRESGAGGRQPAPELLGERQYFYWSADGLVSQAPGKEREFVAGIDRGTITNYADSVRGRFTISRDNAKNTVFRQMNSLKPEDTAVYYCAVPAYGDPRSYYWGQGTHVTVSS,high polyreactivity
5,QVQLVESGGGLVQAGGSLRLICAASGSTIGSYVMGWYRTAPGKERELVAAITSGARTNYADSVKGRFTISRDNAKNTVYLQMNSLKPEDTAVYYCAKYYRPAYVYRIAGYYWGQGTQVTVSS,high polyreactivity
6,QVQVVESGGGLVQAGGRLRLSCAASGRIFYWYAMGWSRQAPGKERELVADINHGDTSTYYADSVKGRFTISRDKAKNTVYLQMNSLKPEDTAVYYCNVRSYVYSRWYQSTWGYYYWGQGTQVTVSS,high polyreactivity
7,QVQLVESGGGLVKAGGSLRLSCAASGINFYRYAMGWYRQAPGKERELVAAITWSGVSTSYADSVKGRFTISRDNAKKTVYLQMNSLKPEDTAVYYCNTDPGTLYGDMDSWGQGTQVTVSS,low polyreactivity
8,QVQLVESGGGLVQAGGSLRLSCAASGNIFYYYAMGWYRQAPGKERELVAAISWRGGITYYANSVKGRFTISRDNAKNTVYLQMNSLKPEDNAVYYCNAVQPGYPNGFAVRYNYWGQGTQVTVSS,low polyreactivity
9,QVQLVESGAGLVQAGGSLRLSCAASGRTFDSNAMGWYRQAPGKEREFFASIRWTVTSTYYADSVKGRFTISRDNAKNTVYLQMNSLKPEDTAVYYCNAEDYYYVGRSDYWGQGTQVTVSS,low polyreactivity
10,QVQLVESGGGLVQAGGSLRLSCAASGFTFPYYAMGWYRPAPGKERELVAAISWIGDSTYYADSVKGRFTISRDNAKNTVYLQMNSLKPEDTAVYYCAAGYKWSIPNRDYDYWGQGTQVTVSS,low polyreactivity
11,QVQLVESGGGLVQAGGSLRLSSAASGRIFYGYAMGWYRQAPGKERELVAGISKRGGSTRYADSVKGRFTISRDNAKNTVYLHMNSLKPEDTAVYYCNRLPYLHYAGRLTNYDYWGQGTQVTVSS,high polyreactivity
12,QVQLVESGGGLVQAGGSLRLSCAASGFIFDSYAMGWYRQAPGKERELVAAISWSGGRTYYADSVKWRFTISRDNAKNTVYLQMNSLKPEDTAVYYCNVRTKLSTSYDYWGQGTQVTVSS,high polyreactivity
13,QVQLVESGGGLVQAGGSLRLSCAASGSTFRYYTMGWYRQAPGKERELVASISRSGSTSYADSVKGRFTISRDNAKNTVYLQMNSLKPEDSAVYYCAGESYFGAYAGYDYWGQGTQVTVSS,low polyreactivity
14,QVQLVESGGGLVQAGGSLRLSCAASGITFESNAMGWYRQAPGKEREFVAAISYDGGDTYYADSVKGRFTISRDNAKNTVYLQMNSLKPEDTAVYYCAAEPGWTMDYWGQGTQVTVSS,low polyreactivity
15,QVQLVDSGGGIVQAGGSLRLSCAASGSTLKYNAMGWYRQAPGKERELVAAISTSGGNTYYADSVKGRFTISRDNAKNTVYLQMNSLKPEDTAVYYCAKVLGYYYYDYDSWGQGTQVTVSS,low polyreactivity
16,QVQLVESGGGLVQAGGSLRLSCAASGLTQYKNGMGWYRQAPGKERELVAVISRSGGRTYYADSVKGRFTISRDNAKNTVYLQMNSLKPEDTAVYYCAARQYGPRYTYYYWGQGTQVTVSS,high polyreactivity

row,Sequence,polyreactivity (PSR sort gate)
1,QVQIVESGGGLVQSGGSLRLSCAASGIIFSSNAMGWYRQAPGKERELVAAISRRGGSTYYADSVKGRFTISRDKAKNTVYLQMNSLKPEDTAVYYFIALLYNVAGYDYWGQGTQVTVSS,high polyreactivity
2,QVQLVESGGVLVQAGGSLRLSCPASGRIYDGYAMGWYRQAPGKERELVAAINSNDGTTYYADSVKGRFTISRDNAKNTVYLQMNSLKPEDTAVYYCAKVSYNAWSYGPQMDYWGQGTQVTVSS,low polyreactivity
3,QVQLVESGGGLVQAGGSLRLSCAASGRTFSGYAMGWYRQAPGKERELVAAISNSGGRTYYADSVKGRFTISRDNAKNTDYLQMNSLKPEDTAVYYSNAVSYWRYDYWGQGTQVTVSS,high polyreactivity
4,QVQLVESGGGLVQAGGSLRLSCAASGSIFEINAMGWYRQAPGKERELVAAITGSGGSTHYADSVKGRFTISRDTAKNTVYLQMNSLKPEDTAVYYCAADICYFTKYGYWGQGTQVTVSS,low polyreactivity
5,QVQLVESGGGLVQAGGSLRLSCAASGSTFVGYAMGWYRQAPGKERELVADITWSGTNTYYADSVKGRFTISRDNAKNTVYLQMNSLKPEDTAVYYCAAELELLLVGFFTYRREYWGQGTQVTVSS,low polyreactivity
6,QVQLVESGGGLVQAGGSLRLSCAASGSTFWYYAMGWYRQAPGKEWEFVAAIKWSGGRTDYADSVKGRFTISRDIAKNTVYLQMNSLKAEDTAVYYFAADYSFRSFPIDANVLGYEYWGQGTQVTVSS,high polyreactivity
7,QVQLQESGRRPGAAGGSPRMSCAASGNIFWVAVMGRYRQAPGKERELGASIGFGCTTYYADSVKCRFTISRDNAKNTVYLQMISLKPEDTAVYYCAAPHYDWGELDYWGQGTQVPVSS,low polyreactivity
8,QVQLVESGGGLVQAGGSLRLSCAASGSIYYNAMGWYRQAPGKERELVAGITWSGGSTYYADSVKGRFTISRDNAKNTVYLQMNSLKPEDTAVYYCAADFVYLGTHYGAYDYWGQGTQVTVSS,low polyreactivity
9,QVQLVESGGGLVQEGGSLRLSCAASGRTFPYTVMGWYRQAPGKERELVAGITGSGDSTFYADSVKGRFTISRDNAKNTVYIQMNSLKPEDTAVYYCAARYRTLNDGYIRIYWGQGTQVTVSS,low polyreactivity
10,QVQLVESGGGLVKAGGSLRLSCAASGYTYPLYAMGWYRQAPGKEMELVADINIGGASTYYADSVKGRFTISRDNAKNTVYLQMNSLKPEDTAVYDCAKEYYDGYFPTFDYDYWGQGTQVTVSS,low polyreactivity
11,QVQLVESGGGLVQAGGSLRLSCAASGSIFWGYAMGWYRPAPGKERELVATIRNRGGSTYYADSVKGRFTISRDNAKNTVYLQMNSLKPEDTAVYYCAAVSYRQYYGWGNYWGQGTQVTVSS,low polyreactivity
12,QVQLVESGGGLVQAGGSLRLSCAASGGTFRNNAMGWYIQAPGKERELVAAISSSGTSTYYADSVKGRFTISRDNAKNTVYLQMNSLKPEDTAVYYCNADALGSPWWDHMDYWGQGTQVTVSS,low polyreactivity
13,QVQLVESGGGLDQAGGSLRLSCAASGIFGVNTMGWYRQAPGKERELVASITSGGSTNYADSVKGRFTISRDNAKNTVYLQMNSLKPEDTAVYYCAAGLYLQGPFDYWGQGTQVTVSS,low polyreactivity
14,QVQLVESGGGLVQAGGSLRLSCAASGFTFWYNDMGWYRQAPGKEREFVAAITTSGGNTYYADSVKGRFTISRDNAKNTVYLQMNSLKPEDTAVYYCAAEEGSSDATGYDYWGQGTQVTVSS,low polyreactivity
15,QVQLVESGGGLVQAGGSLRLSCAASGIIFAAYVMGWYRQAPGKERELVAAISKSGGRTYYADSVKGRFTISRDNAKNTVYLQMNSLKPEDTAVYYCATDVRVGHIRDYDYWGQGTQVTVSS,high polyreactivity

# Reference: the nanobody polyreactivity screen of Harvey et al. (2022)
